Data from the nanobody polyreactivity screen of Harvey et al. (2022).

Test: yeast display, Sf9 membrane polyspecificity reagent, FACS + sequencing; frameworks hold sequencing errors
Procedure, shortened: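 In a synthetic yeast display library (Saccharomyces cerevisiae BJ5465), nanobody expression was induced with galactose for 36–48 hours. FACS gates were set low and high (top ~1%) using anti-HA fluorescence for expression and streptavidin fluorescence for binding of the Sf9 membrane reagent. Each polyreactivity label is drawn from the gate of origin.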

Sequence | polyreactivity (PSR sort gate)
QVQLVESVGGLVKAGGSLRLSCAASGSTFRYYSMGWYRPAPGKERELVAGITTGGGRTYYADSVKGRFTISRDNAMNTVYLQMNSLKPEDTAVYSCAADRYSHYWYRNSYDYWGQGTQVTVSS | high polyreactivity
QVQLVESGGGLVQAGGSLRLSCAASGFTFVDYAMGWYRQAPGKERELVAAISSSGDSTYYADSVKGRFTISRYNAKNTVYLQMNSLKPEDNAVYYCAAEYDREEYSGYDYLGQGTQVTVSS | low polyreactivity
QVQLVESGGGLVQAGGSLRLSCAASGFTIYYYAMGWYRQAPGKERELVASISWSGGSTNYADSVKGRFTISRDNAKNTVYLQMNRLKPEDTAVYYCNTAGPYRRDYWGQGTQVTVSS | high polyreactivity
QDQHVESGGGLVQAGGSLRLSCAASGFTFSDYALGWYRQAPGKERELVAAISTRGSSTYYADSVKGRFTISRDNAKNTVYLHLNSLKQDYTAVSYCNAVGSYSGYYYWGQGTHVTVSS | high polyreactivity
QVQLVESGGGLVQAGGSLRLSCAATGSTFLVNAMGWYRQAPGKERELVAAISRGGSTYADSVKGRFTISRDNAKNTVYLQMYSMNPEDTAVYYCNARRYQSYRYYYWGQGTQVTVSS | high polyreactivity
QVQLVESGGCLVQAGGSLRLSCAASGSISTNYAMGWYRQAPGKERELVAAISDSSGSTYYADSVKGRFTISRDNAKNTVYLQMNSLKPVDTAVYYCNADSQGGRDVHYDYEYYYWGQGTQVTVSS | low polyreactivity
QVQLVESGGGLVQAGGSLRLSCAASGRIFRYYAMGWYRQAPGKERELVASITRRGGSTYYADSVKGRFTISRDNAKNTVYLQMNSLKPEDTAVYYCVGDTYYNLGNYWGQGTQVTVSS | high polyreactivity
QVQLVESGGGLVQAGGSLRLSCAASGYSLYANAKGWSRQAPGKERELVASITFGDDSTYYADSVKGRFTISRDNAKNTVDLQMNSLKPEDTAVYYCNADHKVEVEDDYCGQGTQVTVSS | low polyreactivity
QVQLVESGGGLVQAGGSLRLSCAASGFTFPVYTMGWYRQAPGKERELVAAISGSGASTYYADSVKGRFTISRDNAKNTVYLQMNSLKPEDTAVYYCAAPLWRNYYFGWMDYWGQGTQVTVSS | high polyreactivity
QVHLVESGGGIVQAGGSLRLSCAASGIIFMDNAMGWYRQAPGKERELVAAITTGGITYYADSVKGRFTISRDNAKNTVYLQMNSLKPEDTAVYYCAADNEWPRYDYWGQGTQVTVSS | low polyreactivity
QVQLVESGGGLVQSGGSLRLSCAASGRIFRFYTMGWYRQAPGKERELVAAITQRGGRTYYADSVKGRFTISRDNAKNTVYLQMNSLKPEDTAVYYCAATTTVAEYDYWGQGTQVTVSS | high polyreactivity
QVQLVESGGGLVQAGGSLRLSCAASGSTVSSNAMGWFRLAPGQERELVAAIDRGGSTYYADSVKGRFTISRDNAKNTVYLQMNSRKPEDTAVYYCNADYYHLNSGMYYWGQGTQVTVSS | low polyreactivity
QVQLVESGGGLVQAGGSLRLSCAASGSTFSGYAMGWYRQAPGKERELVAAITLGGGSTYYADSVKGRFTISRDNAKNTVYLQMNSLKPEDTAVYYCAAGDIYYAEYDYWGQGTQVTVSS | low polyreactivity
QVQLVESGGGLVQAGGSLRLSCAASGSTFWRYAMGWYRQAPGKERELVAGITWNGGSTYYADSVKGRFTISRDNAKNTVYLQMNSLKPEDTAVYYCAARRTWGYIYRLGYGMDYWGQGTQVTVSS | high polyreactivity
QVQLVESGGGIVQAGGSLRLSCAASGFTLWLNAMGWYRQAPGKERELVAAITTSDDGTYYADSVKGRFTISRDNAKNTVYLQMNSLKPEDTAVYYCASDYYSVLYDYWGQGTQLTVSS | low polyreactivity
QVQLVESGGGLVQAGGSLRLSCAASGSIFKIYAMGWYRQAPGKERELVAAISRRGSSTSYADSVKGRFTISRDNAKNTVYLQMNSLKPEDTAVYYCAARYISNPMDYWGQGTQVTVSS | high polyreactivity
QVQLVESGGGLVQAGGSLRLSCAASGLIFAEYTMGWYRQAPGKERELVAAISWNGGSTYYADSVKGRFTISRDNAKNTVYLQMNSLKPEDTAVYYCAARYKRVKWYRYEYWGQGTQVTVSS | high polyreactivity
